Measurements from US20030211076A1, “Compositions and methods for treatment of proliferative disorders” (priority 2003, published 2003).

Tests used:
lysyl oxidase (LO) = molecular target: T1, lysyl oxidase (LO) (Bos taurus, UniProt P33072); assay: LO-dependent H2O2 release, horseradish peroxidase-coupled fluorescence assay (substrate potential for LO); format: biochemical
T1 construct: per mature LO molecule (32 kD); from tissue
T1 sequence (P33072 170-418): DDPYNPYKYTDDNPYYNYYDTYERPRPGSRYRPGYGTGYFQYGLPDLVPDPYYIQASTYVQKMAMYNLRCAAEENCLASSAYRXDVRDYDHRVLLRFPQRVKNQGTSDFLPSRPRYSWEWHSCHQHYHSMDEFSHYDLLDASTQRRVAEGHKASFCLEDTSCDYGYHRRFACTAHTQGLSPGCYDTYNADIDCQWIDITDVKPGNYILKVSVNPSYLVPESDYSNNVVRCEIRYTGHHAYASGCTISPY
Description: The oxidation of a primary amine substrate by LO yields stoichiometric amounts of the corresponding aldehyde, hydrogen peroxide and ammonia, as shown: RCH2NH2+O2+H2O→RCHO+H2O2+NH3 (Kagan, 1986). To assess the substrate potential of FGF2, LO-dependent H2O2 release was monitored in assays using FGF2 as the sole substrate, using both the optimum temperature for LO activity of 55° C. and the physiological temperature of 37° C. (Trackman et al., 1981).
LO reaction with FGF2 as a substrate was assessed by a horseradish peroxidase-coupled fluorescence assay for H2O2 production. Reaction mixtures contained 0.25 mg of sodium homovanillate(HVA), 40 μg of HRP, and FGF2 at doses as indicated below in 0.05 M sodium borate buffer, pH 8.2, in a final volume of 2 ml. Assays were initiated by the addition of LO to reaction mixtures. H2O2 release was continuously monitored at excitation and emission wavelengths of 315 and 425 nm, respectively, at a constant temperature of 55° C. or 37° C., as specified, in the thermostatted cuvette chamber of an SLM Aminco Bowman Series 2 Luminescence Spectrometer. All activity data were corrected for background rates of H2O2 release determined in complete assay mixtures supplemented with 200 μM BAPN, an irreversible inhibitor of LO. In FIG. 4, solid curves represent the time course of H2O2 release at 55° C. in the reaction of 0.16 μM LO with 0.23 (a), 0.45 (b) and 0.9 (c) μM FGF2, respectively. Dotted curve (d) represents the time course of H2O2 release in the reaction of 0.16 μM LO with 0.9 μM FGF2 at 37° C. The same data were obtained from three separate experiments.
Using the fluorometric assay (Trackman et al., 1981) to monitor LO-dependent H2O2 release in vitro, the substrate potential of other growth factors was also assessed. Major members of the FGF family tested included FGF 1, 4, 5, 6, 7 and EGF (note: All factors are human recombinant forms purchased from R & D Systems, Inc., Minneapolis, Minn.).
A human recombinant disulfide-linked dimer of VEGF165 (MW: 42 kDa)(R & D Systems) as a sole substrate was tested by using the standard in vitro LO catalysis assays as described above for FIG. 4 (Trackman et al., 1981). Curves represent the time course of H2O2 release at 55° C. (a) or 37° C. (b) in the reaction of 0.10 μM LO with 0.45 μM VEGF165. All activity data were corrected for background rates of H2O2 release determined in complete assay mixtures supplemented with the same amounts of LO preincubated with 100 μM BAPN for 15 min at 37° C. The same data were obtained from three separate experiments.
The standard in vitro LO catalysis assays as described above for FIG. 4 (Trackman et al., 1981) using human recombinant PDGF-AB (R & D Systems) as a sole substrate was tested. […] In FIG. 19, curves represent the time course of H2O2 release at 55° C. (a) and 37° C. (b) in the reaction of 0.11 μM LO with 0.46 μM PDGF-AB, respectively. All activity data were corrected for background rates of H2O2 release determined in complete assay mixtures supplemented with the same amounts of LO preincubated with 100 μM BAPN for 15 minutes at 37° C. The same data were obtained from three separate experiments.
To analyze the substrate potential of Tat, the standard in vitro LO catalysis assays as described in FIG. 4 (Trackman et al., 1981) was performed at the optimum temperature of 55° C. and at the physiological temperature of 37° C. A recombinant Tat with 9 lysines in a total of 86 amino acids was used as a sole substrate. FIG. 12A represents a dose and temperature-dependent response. Curves represent the time course of H2O2 release at 55° C. (solid) or 37° C. (dotted) in the reaction of 0.10 μM LO with 0.22 (a and d), 0.43 (b and e) and 0.85 (c and f) μM Tat, respectively. All activity data were corrected for background rates of H2O2 release determined in complete assay mixtures supplemented with the same amounts of LO preincubated with 100 μM BAPN for 15 min at 37° C. […]

[1] = system: porcine pulmonary arterial vascular endothelial cells (VEC); assay: Growth of Tat-stimulated vascular endothelial cells (cell counting, phase-contrast microscopy); format: cell-based; settings: 3 days, 5% FBS/M199
Description: Stimulation of cell proliferation of porcine pulmonary arterial vascular endothelial cells (VEC) was tested with LO-oxidized Tat. VEC (2×10^4) were plated and incubated overnight in 35 mm-dishes containing 2 ml 15% FBS/M199 medium, and then refed with 5% FBS/M199 with different treatment regimens as shown in A, B and C of FIG. 13. FIG. 13A represents a dose response of Tat-stimulated cell growth. Media were supplemented with Tat at the indicated doses and cells were incubated for additional 3 days. Cultures were refed once during the incubation period with fresh media supplemented with Tat at indicated doses. Cells were harvested by trypsinization and counted with a hemacytometer. FIG. 13B represents the LO inhibition of Tat-stimulated cell growth. FIG. 13C represents the effects of inactivation of LO by BAPN on Tat-stimulated cell growth. LO: 3 or 10 nM, Tat: 10 ng ml^−1, BAPN: 100 μM. Data represent the means (±sd) of three separate experiments each assessed with triplicate dishes.
Numerical and morphological alterations in Tat-stimulated VEC cells treated with LO were observed under phase-contrast microscopy (25'). Cells were cultured as described in FIG. 13 and treated with additives as indicated below. The following represents FIG. 14 phase contrast microscopy: A, control; B, 10 ng ml^−1Tat; C, 10 ng ml^−1 Tat+3 nM LO; D, 10 ng ml^−1 Tat+3 nM LO that was preincubated with 100 μM BAPN for 15 min at 370; E, 100 μM BAPN, alone, and F, 3 nM LO, alone.

VEC on Matrigel = assay: Angiogenic response of Tat-stimulated VEC on Matrigel; format: cell-based; settings: 10 ng/ml Tat, 1 h preincubation and 3 h Tat exposure
Description: VEC grown on Matrigel, a solid gel of basement membrane proteins, rapidly align and form capillary-like structures providing a convenient in vitro model for angiogenesis studies (Albini et al., 1995; Grant et al.). Tat has been reported to enhance this in vitro morphogenesis of VEC consistent with its angiogenic property (Albini et al., 1995).
Cells (3×10^5) were plated on Matrigel-coated dishes. After 1 h incubation, various reagents were added to each culture. […] The following represents FIG. 15 phase-contrast microscopy: A, control; B, 10 ng ml^−1 Tat; C, 10 ng ml^−1 Tat+10 nM LO; D, 10 ng ml^−1 Tat+10 nM LO that was preincubated with 100 μM BAPN for 15 min at 370; E, 100 μM BAPN, alone, and F, 10 nM LO, alone.

Tat: recombinant HIV-1 Tat with 9 lysines in a total of 86 amino acids
maximum release of H2O2 per mole of Tat (lysyl oxidase (LO); 37° C., 0.1 μM LO, 0.22 μM Tat): 4.85 moles of H2O2 per mole of Tat
maximum release of H2O2 per mole of Tat (lysyl oxidase (LO); 37° C., 0.1 μM LO, 0.43 μM Tat): 4.75 moles of H2O2 per mole of Tat
maximum release of H2O2 per mole of Tat (lysyl oxidase (LO); 37° C., 0.1 μM LO, 0.85 μM Tat): 4.80 moles of H2O2 per mole of Tat
H2O2 released per mole of Tat, time course (lysyl oxidase (LO); 37° C., 0.1 μM LO, 20 min): 4.05±0.05 moles of H2O2 released per mole of Tat
H2O2 released per mole of Tat, time course (lysyl oxidase (LO); 37° C., 0.1 μM LO, 30 min): 4.80±0.04 moles of H2O2 released per mole of Tat
maximum release of H2O2 per mole of Tat, average (lysyl oxidase (LO); 37° C., 0.1 μM LO, average over 0.22, 0.43 and 0.85 μM Tat): 4.80±0.05 moles of H2O2 per mole of Tat
molar ratio of H2O2 released per mole of Tat at the plateau (lysyl oxidase (LO); 55° C., 0.1 μM LO, 0.22 μM Tat): 8.42
molar ratio of H2O2 released per mole of Tat at the plateau (lysyl oxidase (LO); 55° C., 0.1 μM LO, 0.43 μM Tat): 8.88
molar ratio of H2O2 released per mole of Tat at the plateau (lysyl oxidase (LO); 55° C., 0.1 μM LO, 0.85 μM Tat): 9.31
molar ratio of H2O2 released per mole of Tat, mean±standard deviation (lysyl oxidase (LO); 55° C., 0.1 μM LO, mean over 0.22, 0.43 and 0.85 μM Tat): 8.87±0.45
substrate of LO (in words) (lysyl oxidase (LO); factor as sole substrate, LO-dependent H2O2 release in vitro): excellent substrate of LO
dose of maximum stimulation of cell proliferation [1]: 10 ng/mL
formation of capillary like structures (VEC on Matrigel): facilitated the formation of capillary like structures
